Test: confocal fluorescence microscopy, ER and mitochondria markers
Details: glycan lost; control: Psd1-EGFP

B1: Psd1: Psd1(N34Q)-EGFP (protein)
parent chain: MSIMPVKNALAQGRTLLMGRMPAVKFSTRMQLRNRTAVLWNRKFSTRLFVQQRRSSGEIVDRAKAAAANSGRKQVSMKWVVLTSFTIVLGTILLVSRNDSTEEDATEGKKGRRTRKIKIFNNNWLFFCYSTLPLNAMSRLWGQVNSLTLPIWVRPWGYRLYSFLFGVNLDEMEDPDLTHYANLSEFFYRNIKPGTRPVAQGEDVIASPSDGKILQVGIINSETGEIEQVKGMTYSIKEFLGTHSHPLMSKSASSLDLTSDEEKHREFARVNRIQLAGSEDTEQPLLNFKNEGDQSVREFKPSVSKNIHLLSQLSLNYFSNGFSCSEPHDTELFFAVIYLAPGDYHHFHSPVDWVCKVRRHFPGDLFSVAPYFQRNFPNLFVLNERVALLGSWKYGFFSMTPVGATNVGSIKLNFDQEFVTNSKSDKHLEPHTCYQAVYENASKILGGMPLVKGEEMGGFELGSTVVLCFEAPTEFKFDVRVGDKVKMGQKLGIIGKNDLK
localisation_or_trafficking: no change

— article PMC5975648
